Measured values taken from patent publication US20150140009A1.

Columns and labels:
[1] = target: TNF-α in conditioned medium of 1 Gy γ-irradiated mouse BM-derived EPCs (IR-CM) (mouse) (UniProt P06804); test: cell-based or functional assay
[2] = target: TNFR2/p75 on BM-derived EPCs of TNFR1/p55 knockout mice (mouse) (UniProt P25119); test: cell-based or functional assay
UniProt P25119, sequence (P25119 23-474): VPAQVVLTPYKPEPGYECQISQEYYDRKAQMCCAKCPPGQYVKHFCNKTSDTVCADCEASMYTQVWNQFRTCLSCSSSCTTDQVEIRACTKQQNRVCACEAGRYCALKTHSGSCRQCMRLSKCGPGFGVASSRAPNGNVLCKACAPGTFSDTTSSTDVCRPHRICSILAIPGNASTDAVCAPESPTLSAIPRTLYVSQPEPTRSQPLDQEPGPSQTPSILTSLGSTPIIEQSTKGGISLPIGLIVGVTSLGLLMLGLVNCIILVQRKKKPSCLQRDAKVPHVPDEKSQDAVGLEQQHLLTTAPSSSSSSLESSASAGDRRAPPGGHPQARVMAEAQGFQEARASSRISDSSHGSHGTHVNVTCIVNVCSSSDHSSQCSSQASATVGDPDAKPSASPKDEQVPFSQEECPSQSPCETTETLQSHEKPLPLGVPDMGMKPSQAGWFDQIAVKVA

UniProt P06804, sequence (P06804 80-235 limits assumed): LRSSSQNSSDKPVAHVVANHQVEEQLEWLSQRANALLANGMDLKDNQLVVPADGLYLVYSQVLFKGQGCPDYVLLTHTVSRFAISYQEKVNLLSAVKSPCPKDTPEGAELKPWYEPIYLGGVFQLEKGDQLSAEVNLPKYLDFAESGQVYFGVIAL

Row | Substance | formation of p-H2AX foci in EPCs treated with γ-IR conditioned media after neutralizing TNF [1] [fold] | mean p-H2AX foci/cell, naïve WT EPCs, 24 h treatment with 3-day IR-CM treated with TNF-α neutralizing antibody [1] [foci/cell] | mean p-H2AX foci/cell, naïve WT EPCs, 24 h treatment with 5-day IR-CM treated with TNF-α neutralizing antibody [1] [foci/cell] | mean p-H2AX foci/cell, naïve WT EPCs, 24 h treatment with 1 h IR-CM treated with TNF-α neutralizing antibody [1] [foci/cell] | mean p-H2AX foci/cell, naïve WT EPCs, 24 h treatment with 5 h IR-CM treated with TNF-α neutralizing antibody [1] [foci/cell] | mean p-H2AX foci/cell, naïve WT EPCs, 24 h treatment with 24 h IR-CM treated with TNF-α neutralizing antibody [1] [foci/cell] | mean p-H2AX foci/cell, naïve p55KO EPCs, 24 h treatment with 3-day IR-CM treated with TNF-α neutralizing antibody [1] [foci/cell] | mean p-H2AX foci/cell, naïve p55KO EPCs, 24 h treatment with 5-day IR-CM treated with TNF-α neutralizing antibody [1] [foci/cell] | mean p-H2AX foci/cell, naïve p55KO EPCs, 24 h treatment with 1 h IR-CM treated with TNF-α neutralizing antibody [1] [foci/cell] | mean p-H2AX foci/cell, naïve p55KO EPCs, 24 h treatment with 5 h IR-CM treated with TNF-α neutralizing antibody [1] [foci/cell] | mean p-H2AX foci/cell, naïve p55KO EPCs, 24 h treatment with 24 h IR-CM treated with TNF-α neutralizing antibody [1] [foci/cell] | mean p-H2AX foci/cell count, naïve p55KO EPCs, 24 h with TNF (100 pg/ml, 1, 40 ng/ml), all cells counted; control 0.98 [2] [foci/cell]
1 | TNF-α neutralizing antibody (Cat. 506309, BioLegend) | 2 | 3.2 | 3.5 | 2.4 | 4.3 | 5 | 4.9 | 3.5 | 3.7 | 3.6 | 4.2 | –
2 | mouse recombinant TNF-α (Cat. 34-8321-82; eBiosciences) (from UniProt P06804 80-235) (ligand) | – | – | – | – | – | – | – | – | – | – | – | 2.8 to 3.9
